Measurements: publication PMC4240585, “Solution Structure of the SGTA Dimerisation Domain and Investigation of Its Interactions with the Ubiquitin-Like Domains of BAG6 and UBL4A” (PLoS ONE, 2014)

What was measured:
[1] = target: T1, UBL domain of UBL4A (UBL4A_UBL), residues 1-74 (human, UniProt P11441 1-74, RED-NHS (amine reactive) dye, in the MST experiment only); test: MST; labelled UBL at 0.4 µM, unlabelled SGTA_NT 400 µM to 24.4 nM; 100 mM MES pH 6.0, 150 mM KCl, 0.5 mM TCEP; 25 °C; Monolith NT.115; settings: both partners purified
T1 sequence (looked up): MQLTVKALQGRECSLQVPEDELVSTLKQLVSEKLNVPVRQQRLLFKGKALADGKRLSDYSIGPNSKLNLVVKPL

[2] = target: T1, UBL domain of UBL4A (UBL4A_UBL), …; test: ITC; 30 °C, 100 mM MES pH 6.0, 200 mM KCl; 20 injections of 2 µL SGTA_NT (dimer, 500 µM) into UBL at 50 µM (monomer); independent binding sites model; settings: both partners purified
[3] = target: the molecule itself; test: NMR solution structure; SGTA_NT dimer; mixed isotope labelling, filtered NOESY for intermolecular NOEs; 100 mM MES pH 6.0, 150 mM KCl, 35 °C; ARIA2.1

Kd [1]: 3.7 µM
stoichiometry N [1]: 1 SGTA dimer: UBL monomer
Kd [2]: 3 µM
dH [2]: 5900 ± 110
stoichiometry N [2]: 0.949 ± 0.013
B1: SGTA N-terminal dimerisation domain (SGTA_NT), residues 1-69 (domain or fragment, UniProt O43765 1-69, looked up)
chain: MDNKKRLAYAIIQFLHDQLRHGGLSSDAQESLEVAIQCLETAFGVTVEDSDLALPQTLPEIFEAAATGK
stoichiometry N [3]: 2
